In the data set the target is human alpha-thrombin (human, UniProt P00734;P00734 328-363;364-622). Briefly: BLI.

GGTTGGTGTGGTTGG (structured_DNA) [TBA-Bt] registered a Kd of 114 nM.
For the molecule TCACTGTGGTTGGTGTGGTTGGTTTTTTTTTTTTACAGTG (structured_DNA) [ISD-Bt], binding was characterised by a dissociation constant (Kd) of 246 nM.

For orientation: Kd means the free concentration of one partner at which half of the binding sites on the other are occupied at equilibrium, for simple one-to-one binding.

For the origin of these results see article doi:10.1101/2023.08.08.552518.
